Substitutions are numbered along the chain they refer to.
What was measured:
[1] = target: T1, IGF-I P66A (G1S-A70V background) displayed on phage (human; bacteriophage M13); assay: competitive phage ELISA
T1 construct: monovalent M13 phage display; not shown: M13 gene III protein fragment (residues 249-406), the phage display carrier, and its junction to IGF-I
Description: (§1) Phage particles were harvested and resuspended in PBS buffer as described in Lowman, H. B., “Phage Display of Peptide Libraries on Protein Scaffolds,” in Cabilly, S. (ed.), Combinatorial Peptide Library Protocols (Humana Press Inc.: Totowa, N.J., 1998), pp. 249-264. Then phage concentrations were normalized to yield a maximal ELISA signal of 0.2-0.4 for each mutant (Lowman, in Cabilly, S. (ed.), supra). Threefold serial dilutions of soluble competitor were prepared on non-absorbent microtiter plates (Nunc, F, 96 wells) with binding buffer (0.5% TWEEN™ 20/PBS) containing phage at the previously-determined concentrations. […] After blocking, the plates containing immobilized target were washed with 0.05% TWEEN™/PBS buffer and subsequently incubated with 80 μl/well of the premixed phage-competitor solutions for 1 hour at room temperature. After washing, bound phage was detected with 80 μl/well of a solution containing a primary rabbit anti-phage polyclonal antibody and a secondary goat anti-rabbit monoclonal antibody-horseradish peroxidase conjugate in 0.5% TWEEN 20™/PBS. o-Phenylenediamine (Sigma) and tetramethylbenzidine (Kirkegaard and Perry) were used as chromogenic substrates, resulting in product detection at 492 and 450 nm, respectively. IC₅₀ values were determined by fitting the binding data to a generic saturation curve (Lowman, in Cabilly, S. (ed.), supra). […] Numbers in Table I represent mean +standard deviation of individually assessed IC₅₀ values.
(§2) At least two different clones of every mutant were tested.

[2] = target: T2, IGF-I L57A (G1S-A70V background) displayed on phage (human; bacteriophage M13); assay: competitive phage ELISA
T2 construct: monovalent M13 phage display; not shown: M13 gene III protein fragment (residues 249-406), the phage display carrier, and its junction to IGF-I
T2 chain: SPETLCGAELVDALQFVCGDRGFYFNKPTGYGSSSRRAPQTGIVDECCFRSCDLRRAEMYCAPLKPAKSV
Description: as §1, §2

[3] = target: T3, IGF-I K68A (G1S-A70V background) displayed on phage (human; bacteriophage M13, UniProt P69168 267-424); assay: competitive phage ELISA
T3 chain: T2 chain with A57L, K68A
Description: as §1, §2

[4] = target: T4, IGF-I V44A (G1S-A70V background) displayed on phage (human; bacteriophage M13); assay: competitive phage ELISA
T4 construct: monovalent M13 phage display
T4 chain: T2 chain with V44A, A57L
Description: as §1, §2

[5] = target: T5, IGF-I G1S-A70V displayed on phage (human; bacteriophage M13); assay: competitive phage ELISA (FIG. 1)
T5 construct: monovalent M13 phage display; template of the alanine scan; also called G1S-A70V IGF-I; wild-type-like IGF-I variant; not shown: M13 gene III fragment (residues 249-406, display partner) and the junction to it
Description: Then phage concentrations were normalized to yield a maximal ELISA signal of 0.2-0.4 for each mutant (Lowman, in Cabilly, S. (ed.), supra). Threefold serial dilutions of soluble competitor were prepared on non-absorbent microtiter plates (Nunc, F, 96 wells) with binding buffer (0.5% TWEEN™ 20/PBS) containing phage at the previously-determined concentrations. […] After blocking, the plates containing immobilized target were washed with 0.05% TWEEN™/PBS buffer and subsequently incubated with 80 μl/well of the premixed phage-competitor solutions for 1 hour at room temperature. After washing, bound phage was detected with 80 μl/well of a solution containing a primary rabbit anti-phage polyclonal antibody and a secondary goat anti-rabbit monoclonal antibody-horseradish peroxidase conjugate in 0.5% TWEEN 20™/PBS. o-Phenylenediamine (Sigma) and tetramethylbenzidine (Kirkegaard and Perry) were used as chromogenic substrates, resulting in product detection at 492 and 450 nm, respectively. IC₅₀ values were determined by fitting the binding data to a generic saturation curve (Lowman, in Cabilly, S. (ed.), supra). […] Numbers in Table I represent mean +standard deviation of individually assessed IC₅₀ values.

[6] = target: T6, IGF-I R36A (purified, soluble) (human, UniProt P05019 49-118); assay: BIACORE; KD mut/KD wt
T6 construct: made from the wild-type template pBKIGF2B-f1-ori
T6 sequence (P05019 49-118 R84A): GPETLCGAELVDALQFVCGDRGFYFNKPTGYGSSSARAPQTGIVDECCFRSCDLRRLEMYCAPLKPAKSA
Description: (§3) Carboxymethylated dextran biosensor chips (CM5, BIAcore Inc.) were activated with EDC (N-ethyl-N′-(3-dimethylaminopropyl)-carbodiimide hydrochloride) and NHS (N-hydroxysuccinimide) according to the supplier's instructions. For immobilization, IGF mutants in 20 mM sodium acetate, pH 4.8, were injected onto the biosensor chip at a concentration of 50 μg/ml to yield approximately 450-600 RU's (resonance-response units) of covalently-coupled protein. Unreacted groups were blocked with an injection of 1 M ethanolamine. […] Association rates (kₐ) and dissociation rates (kd) were calculated separately using a 1:1 Langmuir™ association model in the BIACORE™ evaluation software v. 3.0. The equilibrium dissociation constant (KD) was calculated as kd/kₐ.

[7] = target: T7, IGF-I V11A (purified, soluble) (human, UniProt P05019 49-118); assay: BIACORE; KD mut/KD wt
T7 construct: made from the wild-type template pBKIGF2B-f1-ori
T7 sequence (P05019 49-118 V59A): as the sequence (P05019 49-118 R84A) above, with V11A, A36R counted along it
Description: as §3

[8] = target: T8, F49A IGF-I (purified, soluble) (human, UniProt P05019 49-118); assay: BIACORE; KD mut/KD wt
T8 construct: made from the wild-type template pBKIGF2B-f1-ori; also called F49A IGF variant
T8 sequence (P05019 49-118 F97A): as the sequence (P05019 49-118 R84A) above, with A36R, F49A counted along it
Description: as §3

[9] = target: T9, IGF-I F16A (purified, soluble) (human, UniProt P05019 49-118); assay: BIACORE; KD mut/KD wt
T9 construct: made from the wild-type template pBKIGF2B-f1-ori; also called IGF-F16A; FI6A
T9 sequence (P05019 49-118 F64A): as the sequence (P05019 49-118 R84A) above, with F16A, A36R counted along it
Description: as §3

[10] = target: T10, IGF-I F25A (purified, soluble) (human, UniProt P05019 49-118); assay: BIACORE; KD mut/KD wt
T10 construct: made from the wild-type template pBKIGF2B-f1-ori
T10 sequence (P05019 49-118 F73A): as the sequence (P05019 49-118 R84A) above, with F25A, A36R counted along it
Description: as §3

[11] = target: T11, IGF-I T4A (purified, soluble) (human, UniProt P05019 49-118); assay: BIACORE; KD mut/KD wt
T11 construct: made from the wild-type template pBKIGF2B-f1-ori
T11 sequence (P05019 other isoform, or with tags, fused parts or gaps): as the sequence (P05019 49-118 R84A) above, with T4A, A36R counted along it
Description: as §3

[12] = target: T12, wild-type human IGF-I (purified, soluble) (human, UniProt P05019 49-118); assay: BIACORE; KD mut/KD wt
T12 construct: immobilized on the biosensor chip by amine coupling in BIACORE experiments; also called IGF-I WT
T12 sequence (P05019 49-118): as the sequence (P05019 49-118 R84A) above, with A36R counted along it
Description: as §3

[13] = target: T13, IGF-I P39A (purified, soluble) (human, UniProt P05019 49-118); assay: BIACORE; KD mut/KD wt
T13 construct: made from the wild-type template pBKIGF2B-f1-ori
T13 sequence (P05019 49-118 P87A): as the sequence (P05019 49-118 R84A) above, with A36R, P39A counted along it
Description: as §3

[14] = target: IGF-I G1S-A70V (purified, soluble) (human, UniProt P05019 50-117); assay: BIACORE; KD mut/KD wt
Description: as §3

B1: human IGFBP-1 (other, UniProt P08833 26-259, looked up)
chain: APWQCAPCSAEKLALCPPVSASCSEVTRSAGCGCCPMCALPLGAACGVATARCARGLSCRALPGEQQPLHALTRGQGACVQESDASAPHAAEAGSPESPESTEITEEELLDNFHLMAPSEEDHSILWDAISTYDGSKALHVTNIKKWKEPCRIELYRVVESLAKAQETSGEEISKFYLPNCNKNGFYHSRQCETSMDGEAGLCWCVYPWNGKRIPGSPEIRGDPNCQIYFNVQN
notes: secreted recombinant protein purified from conditioned medium
[1]
  IC50: 9.4 nM
[2]
  IC50: 21.8 nM
[3]
  IC50: 10.5 nM
[4]
  IC50: 18.8 nM
[5]
  IC50: 8.5 nM
[6]
  relative KD: 1.1
[7]
  relative KD: 5.1
[8]
  relative KD: 70
[9]
  relative KD: 25
[10]
  relative KD: 25
[11]
  relative KD: 6.9
[12]
  relative KD: 1
[13]
  relative KD: 1
[14]
  relative KD: 1.1

From patent publication US20020160955A1 (published 2002)
